Experimental data as given in patent US20190077860A1 (EISAI R AND D MANAGEMENT, published 2019).
Residue numbers refer to the chain shown, from its start.

T1: human EphA7 extracellular region-SEAP-His protein (human, UniProt Q15375 28-555)
T1 construct: extracellular domain; also called hEphA7-SEAP-His
T1 sequence (looked up): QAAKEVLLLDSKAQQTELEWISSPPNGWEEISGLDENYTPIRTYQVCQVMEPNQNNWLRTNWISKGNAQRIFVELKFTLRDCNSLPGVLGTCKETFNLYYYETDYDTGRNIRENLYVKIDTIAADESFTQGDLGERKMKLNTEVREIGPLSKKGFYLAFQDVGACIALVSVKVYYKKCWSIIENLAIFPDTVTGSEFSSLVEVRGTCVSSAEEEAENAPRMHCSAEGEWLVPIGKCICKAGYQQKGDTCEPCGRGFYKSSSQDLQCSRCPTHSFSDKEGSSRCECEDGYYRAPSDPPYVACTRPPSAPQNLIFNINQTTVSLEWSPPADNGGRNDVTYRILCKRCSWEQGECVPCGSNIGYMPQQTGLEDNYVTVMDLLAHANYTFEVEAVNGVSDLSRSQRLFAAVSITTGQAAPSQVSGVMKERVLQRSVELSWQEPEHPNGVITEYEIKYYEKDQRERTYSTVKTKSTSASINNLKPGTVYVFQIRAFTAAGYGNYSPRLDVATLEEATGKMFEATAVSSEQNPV

T2: human EphB1 extracellular region-SEAP-His protein (human, UniProt P54762 18-540)
T2 construct: extracellular domain; also called hEphB1-SEAP-His
T2 sequence (looked up): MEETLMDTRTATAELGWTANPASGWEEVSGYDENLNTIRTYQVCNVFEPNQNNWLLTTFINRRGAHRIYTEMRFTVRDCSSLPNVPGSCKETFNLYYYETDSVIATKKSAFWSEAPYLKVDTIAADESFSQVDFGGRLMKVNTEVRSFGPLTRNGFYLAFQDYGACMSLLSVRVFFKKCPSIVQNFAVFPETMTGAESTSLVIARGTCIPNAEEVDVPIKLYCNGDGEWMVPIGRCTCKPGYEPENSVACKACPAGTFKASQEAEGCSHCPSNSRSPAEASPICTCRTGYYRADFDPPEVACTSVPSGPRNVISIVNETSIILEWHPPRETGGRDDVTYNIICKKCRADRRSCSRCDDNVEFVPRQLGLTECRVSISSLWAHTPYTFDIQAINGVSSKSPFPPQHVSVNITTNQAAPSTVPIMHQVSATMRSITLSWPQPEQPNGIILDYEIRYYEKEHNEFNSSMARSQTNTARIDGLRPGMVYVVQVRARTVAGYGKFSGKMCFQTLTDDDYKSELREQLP

T3: human EphB4 extracellular region-SEAP-His protein (human, UniProt P54760 16-539)
T3 construct: extracellular domain; also called hEphB4-SEAP-His
T3 sequence (looked up): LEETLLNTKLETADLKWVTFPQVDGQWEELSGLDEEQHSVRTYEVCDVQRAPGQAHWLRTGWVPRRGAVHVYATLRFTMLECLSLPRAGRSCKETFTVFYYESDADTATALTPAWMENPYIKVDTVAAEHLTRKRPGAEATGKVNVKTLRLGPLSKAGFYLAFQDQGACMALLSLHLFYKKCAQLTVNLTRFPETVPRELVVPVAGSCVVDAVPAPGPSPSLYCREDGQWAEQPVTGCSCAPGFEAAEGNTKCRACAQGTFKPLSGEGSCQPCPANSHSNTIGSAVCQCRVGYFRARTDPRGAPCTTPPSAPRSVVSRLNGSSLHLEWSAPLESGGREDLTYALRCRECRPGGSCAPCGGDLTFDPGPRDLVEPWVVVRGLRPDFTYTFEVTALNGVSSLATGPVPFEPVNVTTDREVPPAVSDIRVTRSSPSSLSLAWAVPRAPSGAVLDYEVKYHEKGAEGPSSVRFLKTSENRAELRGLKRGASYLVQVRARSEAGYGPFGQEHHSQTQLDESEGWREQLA

T4: human EphB6 extracellular region-SEAP-His protein (human, UniProt O15197 32-594)
T4 construct: extracellular domain; also called hEphB6-SEAP-His
T4 sequence (looked up): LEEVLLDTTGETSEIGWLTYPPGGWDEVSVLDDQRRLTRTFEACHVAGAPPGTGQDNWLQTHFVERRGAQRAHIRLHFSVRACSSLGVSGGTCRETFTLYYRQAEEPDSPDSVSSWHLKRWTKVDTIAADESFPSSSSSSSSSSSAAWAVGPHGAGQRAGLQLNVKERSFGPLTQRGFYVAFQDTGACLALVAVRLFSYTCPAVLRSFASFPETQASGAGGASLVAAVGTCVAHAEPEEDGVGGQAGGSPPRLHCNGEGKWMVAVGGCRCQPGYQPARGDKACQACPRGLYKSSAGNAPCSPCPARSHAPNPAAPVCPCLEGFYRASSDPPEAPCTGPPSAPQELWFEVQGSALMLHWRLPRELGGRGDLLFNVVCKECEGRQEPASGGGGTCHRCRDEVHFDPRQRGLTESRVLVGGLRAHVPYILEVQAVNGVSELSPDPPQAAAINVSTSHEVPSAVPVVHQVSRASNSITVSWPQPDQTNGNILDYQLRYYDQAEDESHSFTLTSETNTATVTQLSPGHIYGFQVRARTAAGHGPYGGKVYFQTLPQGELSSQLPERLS

B1: humanized antibody No. 133 (antibody, human IgG2)
heavy: QVQLVQSGSELKKPGASVKVSCKASGYTFTDYSMHWVRQAPGQGLEWMGWINTETGEPTYAQGFTGRFVFSLDTSVSTAYLQISSLKAEDTAVYYCARIPLYYYGSRYWYFDVWGQGTTVTVSSASTKGPSVFPLAPSSRSTSESTAALGCLVKDYFPEPVTVSWNSGALTSGVHTFPAVLQSSGLYSLSSVVTVPSSNFGTQTYTCNVDHKPSNTKVDKTVERKSCVECPPCPAPPAAAPSVFLFPPKPKDTLMISRTPEVTCVVVDVSHEDPEVQFNWYVDGVEVHNAKTKPREEQFNSTFRVVSVLTVVHQDWLNGKEYKCKVSNKGLPAPIEKTISKTKGQPREPQVYTLPPSREEMTKNQVSLTCLVKGFYPSDIAVEWESNGQPENNYKTTPPMLDSDGSFFLYSKLTVDKSRWQQGNVFSCSVMHEALHNHYTQKSLSLSPG
light: EIVMTQSPATLSVSPGERATLSCRASENIYRNLAWYQQKPGQSPRLLIYAATNLADGIPARFSGSGSGTEYTLTISSLQSEDFAVYYCQHFWGTPWTFGQGTKVEIKRTVAAPSVFIFPPSDEQLKSGTASVVCLLNNFYPREAKVQWKVDNALQSGNSQESVTEQDSKDSTYSLSSTLTLSKADYEKHKVYACEVTHQGLSSPVTKSFNRGEC
notes: human Ig kappa; also called L2-4/HA1
B2: humanized antibody No. 94 (antibody, human IgG1, kappa)
heavy: QVQLVQSGSELKKPGASVKVSCKASGYTFTDYSMHWVRQAPGQGLKWMGWINTETGEPTYAQGFTGRFVFSLDTSVSTAYLQISSLKAEDTAVYYCARIPLYYYGSRYWYFDVWGQGTTVTVSSASTKGPSVFPLAPSSKSTSGGTAALGCLVKDYFPEPVTVSWNSGALTSGVHTFPAVLQSSGLYSLSSVVTVPSSSLGTQTYICNVNHKPSNTKVDKRVEPKSCDKTHTCPPCPAPPAAAPSVFLFPPKPKDTLMISRTPEVTCVVVDVSHEDPEVQFNWYVDGVEVHNAKTKPREEQFNSTFRVVSVLTVVHQDWLNGKEYKCKVSNKGLPAPIEKTISKTKGQPREPQVYTLPPSREEMTKNQVSLTCLVKGFYPSDIAVEWESNGQPENNYKTTPPMLDSDGSFFLYSKLTVDKSRWQQGNVFSCSVMHEALHNHYTQKSLSLSPG
light: B1 light
notes: human Ig kappa; also called L2-4/HA2
B3: humanized antibody No. 95 (antibody, human IgG1, kappa)
heavy: B2 heavy with K46E, Q62D, G63D, T65K
light: B1 light
notes: human Ig kappa; also called L2-4/HK1
B4: humanized antibody No. 137 (antibody, human IgG2)
heavy: B1 heavy with V2I, E46K, Q62D, G63D, T65K
light: B1 light
notes: human Ig kappa; also called L2-4/HK4
B5: humanized antibody No. 73 (antibody, human IgG1, kappa)
heavy: B2 heavy with V2I, Q62D, G63D, T65K
light: B1 light
notes: as for B4
B6: humanized antibody No. 136 (antibody, human IgG2)
heavy: B1 heavy with E46K, Q62D, G63D, T65K
light: B1 light
notes: human Ig kappa; also called L2-4/HK2
B7: humanized antibody No. 96 (antibody, human IgG1, kappa)
heavy: B2 heavy with Q62D, G63D, T65K
light: B1 light
notes: as for B6
B8: humanized antibody No. 93 (antibody, human IgG1, kappa)
heavy: B2 heavy with K46E
light: B1 light
notes: as for B1
B9: humanized antibody No. 71 (antibody, human IgG1, kappa)
heavy: B2 heavy with V2I
light: B1 light
notes: human Ig kappa; also called L2-4/HA4
B10: humanized antibody No. 135 (antibody, human IgG2)
heavy: B1 heavy with Q62D, G63D, T65K
light: B1 light
notes: as for B3

target: T1, human EphA7 extracellular …; assay: ELISA

A450 as % of hEphA4-SEAP-His [%]	Binder
4.6	B1
6.1	B2
4.4	B3
5.8	B4
5.6	B5
5.4	B6
5.3	B7
4.9	B8
5.2	B9
5.2	B10

target: T2, human EphB1 extracellular …; assay: ELISA

A450 as % of hEphA4-SEAP-His [%]	Binder
4.6	B1
6.7	B2
4.6	B3
5.8	B4
5.7	B5
5.2	B6
5.6	B7
5	B8
5.4	B9
5.1	B10

target: T3, human EphB4 extracellular …; assay: ELISA

A450 as % of hEphA4-SEAP-His [%]	Binder
4.9	B1
6.5	B2
4.6	B3
5.7	B4
5.7	B5
5.2	B6
5.5	B7
5	B8
5.5	B9
5.1	B10

target: T4, human EphB6 extracellular …; assay: ELISA

A450 as % of hEphA4-SEAP-His [%]	Binder
4.8	B1
6.4	B2
4.7	B3
5.7	B4
5.6	B5
5.5	B6
5.5	B7
4.9	B8
5.3	B9
5.3	B10
